Data on 14 molecules can be found in patent US20260232830A1 (JIANGSU HENGRUI PHARMACEUTICALS, published 2026).

The target in assay [1] is T1, human MUC1-C on stably transfected cells (human, UniProt P15941 961-1255, limits assumed).
T1 construct: domain: MUC1-C; the cell line of each value is named under assay; also called HCC827-human-MUC1-C cells; CHOK1-human-MUC1-C cells
Kind of assay: FACS, HCC827-human-MUC1-C, Test 2.

Assay [2] has as its target T1, human MUC1-C on stably transfected cells. The experiment in a line: FACS, HCC827-human-MUC1-C.
Assay [3] has the same target. Kind of assay: FACS, CHOK1-human-MUC1-C. A general note: Flow cytometry measures light scatter and fluorescence of single cells or particles in a stream.
Assay [4] has the same target. The experiment in a line: FACS, CHOK1-human-MUC1-C. The source holds these as a separate data set.
Assay [5] has the same target. Kind of assay: FACS, HCC827-human-MUC1-C, Test 1.
Assay [6] concerns the target T2, human MUC1 as expressed on tumour cell lines (T47D, HCC827, HPAC) (human, UniProt P15941 24-1255).
T2 construct: whole, on cells; the cell line is named under assay; also called T47D cells; HCC827 cells
The experiment in a line: FACS, HCC827.

The target in assay [7] is T2, human MUC1 as expressed on tumour cell …. Kind of assay: FACS, HPAC.
Assay [8] shares this target. Kind of assay: FACS, T47D.
The target of assay [9] is T1, human MUC1-C on stably transfected cells. The experiment in a line: FACS, HCC827-human-MUC1-C, Test 2. This is another data set of the same source.

B1: M6-H2L2 (antibody, human IgG1, kappa, V domains shown)
VH: EVQLVQSGAEVKKPGASVKVSCKASGYRFIPYWIEWVRQAPGQGLEWMGEILPGTGRTNYNEKFKGRVTFTADTSTNTVYMELSSLRSEDTAVYYCARYGDDTSGGYYAVDYWGQGTTVTVSS
VL: EIVLTQSPATLSLSPGERATLSCRASESVNILGTNLIHWYQQKPGQAPKLLIYHASNLETGIPARFSGSGSRTDFTLTISSLEPEDFAVYYCLQSRKIPWTFGGGTKVEIKR
notes: humanized, human IgG1
In the case of B1, the Emax in assay [1] amounted to 92700.

B2: M6-H7L3 (antibody, human IgG1, kappa, V domains shown)
VH: EVQLVQSGAEVKKPGASVKVSCKASGYRFIPYWIEWVRERPGHGLEWMGEILPGTGRTNYNEKFKGRVTFTADTSTNTVYMELSSLTNEDTAVYYCARYGEDTSGGYYAVDYWGQGTTVTVSS
VL: DIVMTQSPATLSLSPGERATLSCRASESVNILGTNLIHWYQQKPGQAPKLLIYHASNLETGIPARFSGSGSRTDFTLTISSLEPEDVAVYYCLQSRKIPWTFGGGTKVEIKR
notes: humanized, human IgG1
Consider B2, for which, in assay [1], the Emax is 48900.

B3: M6-H7L2 (antibody, human IgG1, kappa, V domains shown)
VH: EVQLVQSGAEVKKPGASVKVSCKASGYRFIPYWIEWVRERPGHGLEWMGEILPGTGRTNYNEKFKGRVTFTADTSTNTVYMELSSLTNEDTAVYYCARYGEDTSGGYYAVDYWGQGTTVTVSS
VL: EIVLTQSPATLSLSPGERATLSCRASESVNILGTNLIHWYQQKPGQAPKLLIYHASNLETGIPARFSGSGSRTDFTLTISSLEPEDFAVYYCLQSRKIPWTFGGGTKVEIKR
notes: humanized, human IgG1
B3 returned an Emax in [1] of 78400.

B4: M6-H5L3 (antibody, human IgG1, kappa, V domains shown)
VH: EVQLVQSGAEVKKPGASVKVSCKASGYRFIPYWIEWVRERPGHGLEWMGEILPGTGRTNYNEKFKGRVTFTADTSTNTVYMELSSLTSEDTAVYYCARYGEDTSGGYYAVDYWGQGTTVTVSS
VL: DIVMTQSPATLSLSPGERATLSCRASESVNILGTNLIHWYQQKPGQAPKLLIYHASNLETGIPARFSGSGSRTDFTLTISSLEPEDVAVYYCLQSRKIPWTFGGGTKVEIKR
notes: humanized, human IgG1
In the case of B4, in [1], the Emax came out at 73000.

B5: ChiM4 (antibody, human IgG1, kappa, V domains shown)
VH: QVQLQQSGAELARPGASVKLSCKASGYSFTTYGVPWVKQRTGQGLEWIGDIYPRSGNTYYNEKFKGKATLTADKSSDTVFMELRSLSSEDSAVYFCAREDYDNYPYALDYWGQGTSVTVSS
VL: EIVLTQSPAIIAASPGEKVTITCSASSSVFNMNWYQQKPGSSPKIWIYDISKLASGVPGRFSGSGSGTSFSLTINSMEAEDVGTYYCQQRSFYPPTFGGGTKVEIKR
notes: murine variable regions on human IgG1 constant regions; also called chimeric antibody of M4
B5 displayed an Emax in assay [2] of 13200.

B6: F4-1-H1L2 (antibody, human IgG1, kappa, V domains shown)
VH: EVQLVQSGAEVKKPGASVKVSCKASGYTFTDNYINWVRQAPGQRLEYMGWIYPGSGNNKFNEKFKGRVTITVDTSASTAYMELSSLRSEDTAVYYCARDYPFPSYHYGMDYWGQGTTVTVSS
VL: DIQLTQSPSSLSASVGDRVTITCSASSSVSYIHWFQQKPGKAPKLWIYSTSNLASGVPSRFSGSGSGTDFTLTVSSLQPEDFATYYCQQRSSYPPTFGGGTKVEIKR
notes: humanized, human IgG1
Take B6: in [3], the Emax is 102000.

B7: F4-1-H2L3 (antibody, human IgG1, kappa, V domains shown)
VH: EVQLVQSGAEVKKPGASVKVSCKASGYTFTDNYINWVRQAPGQRLEYIGWIYPGSGNNKFNEKFKGRVTLTVDTSARTAYMELSSLRSEDTAVYYCARDYPFPSYHYGMDYWGQGTTVTVSS
VL: DIQLTQSPSSLSASVGDRVTITCSASSSVSYIHWFQQKPGTSPKLWIYSTSNLASGVPSRFSGSGSGTDFTLTVSSLQPEDFATYYCQQRSSYPPTFGGGTKVEIKR
notes: humanized, human IgG1
Consider B7, for which the Emax in assay [3] is 122000.

B8: F4-18-H2L3 (antibody, human IgG1, kappa, V domains shown)
VH: EVQLVQSGAEVKKPGASVKVSCKASGYTFTSYGINWVRQRPGQGLEWIGYIYLGSDYTEYNEKFKGRVTLTSDTSASTAYMELSSLRSEDTAVYYCARSAGSLFAYWGQGTLVTVSS
VL: DIQLTQSPSSLSASVGDRVTITCRASQDIGITLNWLQQKPGKAIKRLIYATSSLDSGVPSRFSGSRSGSDYTLTISSLQPEDFATYYCLQYASSPYTFGGGTKVEIKR
notes: humanized, human IgG1
On to B8, for which the Emax in assay [4] was 80400.

B9: F4-18-H3L4 (antibody, human IgG1, kappa, V domains shown)
VH: EVQLVQSGAEVVKPGASVKMSCKTSGYTFTSYGINWVRQRPGQGLEWIGYIYLGSDYTEYNEKFKGRVTLTSDTSASTAYMELSSLRSEDTAVYYCARSAGSLFAYWGQGTLVTVSS
VL: DIQLTQSPSSLSASVGDRVTITCRASQDIGITLNWLQQEPGGAIKRLIYATSSLDSGVPKRFSGSRSGSDYTLTISSLQPEDFATYYCLQYASSPYTFGGGTKVEIKR
notes: humanized, human IgG1
Regarding B9, the Emax in assay [4] came out at 73400.

B10: ChiF4-18 (antibody, human IgG1, kappa, V domains shown)
VH: EVQLQQSGAELVRPGSSVKMSCKTSGYTFTSYGINWVKQRPGQGLEWIGYIYLGSDYTEYNEKFKGKATLTSDTTSSTAYMQLSSLTSEDSAIYFCARSAGSLFAYWGQGTLVTVSA
VL: DIQLTQSPSSLSASLGERVSLTCRASQDIGITLNWLQQEPDGTIKRLIYATSSLDSGVPKRFSGSRSGSDYSLTISSLESEDFVDYYCLQYASSPYTFGGGTKLEIKR
notes: murine variable regions on human IgG1 constant regions; also called chimeric antibody of F4-18
B10 showed an Emax in assay [2] of 20900.

B11: M4-H1L2 (antibody, human IgG1, kappa)
heavy: not shown
light: DIVMTQSPSSLSASVGDRVTITCSASSSVFNMNWYQQKPGKSPKLWIYDISKLASGVPSRFSGSGSGTDFTLTISSLQPEDFATYYCQQRSFYPPTFGGGTKVEIKRTVAAPSVFIFPPSDEQLKSGTASVVCLLNNFYPREAKVQWKVDNALQSGNSQESVTEQDSKDSTYSLSSTLTLSKADYEKHKVYACEVTHQGLSSPVTKSFNRGEC
notes: humanized, human IgG1
In turn, B11 showed an Emax in assay [5] of 74400.

B12: M4H1L1-9-A (antibody, human IgG1, kappa)
heavy: not shown
light: DIQMTQSPSSLSASVGDRVTITCSASSSVFNMNWYQQKPGKSPKLWIYDISKLASGVPSRFSGSGSGTDFTLTISSLQPEDFATYYCQQRSFYPPTFGGGTKVEIKRTVAAPSVFIFPPSDEQLKSGTASVVCLLNNFYPREAKVQWKVDNALQSGNSQESVTEQDSKDSTYSLSSTLTLSKADYEKHKVYACEVTHQGLSSPVTKSFNRGEC
modifications: compound 9-A coupled to reduced cysteines of the antibody (chains and sites not stated), average n=6.6
notes: also called MUC1 monoclonal antibody ADC
Regarding B12, the figures for the Emax in assay [6] and in assay [7] were 3690 and 29200, respectively.

B13: M4-H1L1 (antibody, human IgG1, kappa)
heavy: not shown
light: DIQMTQSPSSLSASVGDRVTITCSASSSVFNMNWYQQKPGKSPKLWIYDISKLASGVPSRFSGSGSGTDFTLTISSLQPEDFATYYCQQRSFYPPTFGGGTKVEIKRTVAAPSVFIFPPSDEQLKSGTASVVCLLNNFYPREAKVQWKVDNALQSGNSQESVTEQDSKDSTYSLSSTLTLSKADYEKHKVYACEVTHQGLSSPVTKSFNRGEC
notes: humanized, human IgG1
As usually defined, the EC50 is the concentration giving half of the maximal effect. A low value points to greater potency. For the molecule B13, the Emax in assay [8] is 5250; in assay [6], 3630; in assay [7], 22400; in [9] it was 42300. In assay [9], this molecule displayed an EC50 of 5 nM.

B14: ChiF4-1 (antibody, human IgG1, kappa, V domains shown)
VH: QIQLQQSGPELVKPGASVKISCKASGYTFTDNYINWVKQRPGQGLEYIGWIYPGSGNNKFNEKFKGKATLTVDTSSRTAFMQLSSLTFEDSAVYFCARDYPFPSYHYGMDYWGQGTSVTVSS
VL: QILLTQSPAIMSASPGERVTITCSASSSVSYIHWFQQKPGTSPKLWIYSTSNLASGVPPRFSGSGSGTSFSLTVSRMEAEDAATYYCQQRSSYPPTFGGGTKLEIKR
notes: murine variable regions on human IgG1 constant regions; also called chimeric antibody of F4-1
Regarding B14, the Emax in [2] came out at 21500.
